Key:
mPOMC promoter = assay: NHR-promoter luciferase screen, mPOMC promoter; assay type: cell-based, mouse
In short: (§1)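 CV-1 cells were co-transfected with 50 ng NHR (homodimer or NHR/RXR heterodimer), 100 ng promoter-luciferase construct and 50 ng LacZ. Luciferase was normalized to LacZ and to a no-NHR/no-ligand control.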

hMDR1 promoter = assay: NHR-promoter luciferase screen, hMDR1 promoter; assay type: cell-based, human
In short: as §1

RevErba promoter = assay: NHR-promoter luciferase screen, RevErba (RVRa) promoter; assay type: cell-based; parameters: key to mRevErba promoter reporter activity / Normalized Luc. act., normalized to control: luciferase activity normalized to lacZ and to control (no NHR/ligand)
In short: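 CV-1 cells co-transfected with NHR (pcDNA3.1, C-terminal V5H6 tag) as homodimer or RXR heterodimer, RevErbα promoter–luciferase reporter and LacZ transfection control; ligand added where applicable. Luciferase normalized to LacZ and to no-NHR/no-ligand control.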

Bmal1 promoter = assay: NHR-promoter luciferase screen, Bmal1 promoter; assay type: cell-based, mouse
In short: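 CV-1 cells co-transfected with 50 ng NHR (V5H6-tagged, pcDNA3.1; homodimer or RXR heterodimer), 100 ng Bmal1 promoter-luciferase and 50 ng LacZ. Luciferase was normalized to LacZ and to a no-NHR/ligand control.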

mLeptin promoter = assay: NHR-promoter luciferase screen, mLeptin promoter; assay type: cell-based, mouse
In short: as §1

[1] = Table 6d, luciferase activity relative to control (control = 1.00)
[2] = MDR1 promoter, HR/ligand component
[3] = transcription factor +/- ligand, control = 1.00
[4] = RVRa promoter, HR component without or with ligand
[5] = Bmal1 promoter, HR component without or with ligand

B1: hMR: Mineralocorticoid Receptor (NR3C2, MR), cDNA driver (protein, UniProt P08235 1-984, looked up)
Mineralocorticoid receptor: METKGYHSLPEGLDMERRWGQVSQAVERSSLGPTERTDENNYMEIVNVSCVSGAIPNNSTQGSSKEKQELLPCLQQDNNRPGILTSDIKTELESKELSATVAESMGLYMDSVRDADYSYEQQNQQGSMSPAKIYQNVEQLVKFYKGNGHRPSTLSCVNTPLRSFMSDSGSSVNGGVMRAVVKSPIMCHEKSPSVCSPLNMTSSVCSPAGINSVSSTTASFGSFPVHSPITQGTPLTCSPNVENRGSRSHSPAHASNVGSPLSSPLSSMKSSISSPPSHCSVKSPVSSPNNVTLRSSVSSPANINNSRCSVSSPSNTNNRSTLSSPAASTVGSICSPVNNAFSYTASGTSAGSSTLRDVVPSPDTQEKGAQEVPFPKTEEVESAISNGVTGQLNIVQYIKPEPDGAFSSSCLGGNSKINSDSSFSVPIKQESTKHSCSGTSFKGNPTVNPFPFMDGSYFSFMDDKDYYSLSGILGPPVPGFDGNCEGSGFPVGIKQEPDDGSYYPEASIPSSAIVGVNSGGQSFHYRIGAQGTISLSRSARDQSFQHLSSFPPVNTLVESWKSHGDLSSRRSDGYPVLEYIPENVSSSTLRSVSTGSSRPSKICLVCGDEASGCHYGVVTCGSCKVFFKRAVEGQHNYLCAGRNDCIIDKIRRKNCPACRLQKCLQAGMNLGARKSKKLGKLKGIHEEQPQQQQPPPPPPPPQSPEEGTTYIAPAKEPSVNTALVPQLSTISRALTPSPVMVLENIEPEIVYAGYDSSKPDTAENLLSTLNRLAGKQMIQVVKWAKVLPGFKNLPLEDQITLIQYSWMCLSSFALSWRSYKHTNSQFLYFAPDLVFNEEKMHQSAMYELCQGMHQISLQFVRLQLTFEEYTIMKVLLLLSTIPKDGLKSQAAFEEMRTNYIKELRKMVTKCPNNSGQSWQRFYQLTKLLDSMHDLVSDLLEFCFYTFRESHALKVEFPAMLVEIISDQLPKVESGNAKPLYFHRK
Results of assays of transcription factor (+/- ligand) with mPOMC (mPOMC promoter; [1]): 0.73
Luc. act., normalized to lacZ (mPOMC promoter; mPOMC promoter, HR component with or without ligand): 50.3
Normalized Luc. act., normalized to control (mPOMC promoter; mPOMC promoter, HR component with or without ligand, relative to control): 0.7
Luc. act., normalized to lacZ (hMDR1 promoter; [2]): 0.1
Normalized Luc. act., normalized to control (hMDR1 promoter; [2]): 0.3
hMDR1 promoter reporter activity (hMDR1 promoter; [3]): 0.34
Luc. act., normalized to lacZ (RevErba promoter; [4]): 13.7
Normalized Luc. act., normalized to control (RevErba promoter; [4]): 0.5
negative reciprocal of normalized Luc. act. (fold repression; Table 33) (RevErba promoter; RVRa promoter, given only where activity is below control): −2.036
normalized Luc. act. on a logarithmic scale (column without head, Table 33) (RevErba promoter; RVRa promoter, log10 of activity normalized to control): −0.31
mRevErba promoter reporter activity (RevErba promoter; [3]): 0.49
Luc. act., normalized to lacZ (Bmal1 promoter; [5]): 18.2
Normalized Luc. act., normalized to control (Bmal1 promoter; [5]): 1.2
mBmal1 promoter reporter activity (Bmal1 promoter; [3]): 1.17
Luc. act., normalized to lacZ (mLeptin promoter; Table 7, mLeptin): 1.7
Normalized Luc. act., normalized to control (mLeptin promoter; Table 7, mLeptin): 0.6
Results of assays of transcription factor (+/- ligand) with mLeptin (mLeptin promoter; [1]): 0.57
